Columns and labels:
[1] = biological target: PDK1 catalytic domain, 50-359 (UniProt O15530); assay: AlphaScreen GST-PRK2 / His-PDK1; settings: reference: wild type; sites T958
PDK1 1-556 = PDK1 1-556 (UniProt O15530); assay: AlphaScreen GST-PRK2 / His-PDK1; settings: reference: wild type; sites T958

| binding against the reference [1] | binding against the reference (PDK1 1-556) | Substance |
| --- | --- | --- |
| stronger |  | PRK2 (PKN2) catalytic domain, 643-984 (from UniProt Q16513) T958A |
| stronger | stronger | PRK2 (PKN2) 1-984 (from UniProt Q16513) T958A |
